Source: patent publication US20240285782A1, “METHODS FOR USING BIOADHESIVE AND STERIC INTERACTIONS OF COPOLYMERS WITH AT LEAST TWO MOIETIES TO MINIMIZE ADVERSE EFFECTS MEDIATED BY EXTERNAL INFLUENCES ON CELL, TISSUE, ORGAN SYSTEM, AND ORGANISM BIOLOGY” (priority 2021, published 2024)
Read-outs that look alike come from different tables or passages of the source.

How the values were obtained:
corneal cell = settings: low dose exposure; cited from earlier work
[1] = cited from earlier work

Molecule: CCN(c1nc(N)c(C(=O)N=C(N)N)nc1Cl)C(C)C [EIPA, 5-(N-ethyl-N-isopropyl)amiloride]
- toxicity (positive control, pilot evaluation FIG. 8) (HCE-T cells): toxic
- toxicity to cells, corneal cell death (corneal cell): toxic

Molecule: Belnatomab mafodotin: ADC cited as an example for half-life
- half-life ([1]; after the first infusion): 12 days
- half-life ([1]; in steady state): 14 days
- time to reach steady state ([1]; in vivo): 70 days
